From patent US20060257938A1, “Method of screening for drugs that block ligand binding to a lipid binding protein” (priority 2005, published 2006)
Where “and” joins values, the source holds several entries; their conditions need not be identical. Equal entries are not always repeated.

T1: ADIFAB (Rattus norvegicus, UniProt P02693)
T1 construct: purchased FFA Sciences LLC, San Diego, Calif
T1 sequence (P02693 2-132): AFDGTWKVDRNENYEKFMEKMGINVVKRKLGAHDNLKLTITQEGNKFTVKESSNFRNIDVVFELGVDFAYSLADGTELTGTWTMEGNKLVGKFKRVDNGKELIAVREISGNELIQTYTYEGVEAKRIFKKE


Tests used:
ADIFAB = molecular target: T1, ADIFAB; test: ADIFAB screening assay in 96-well plates (emission ratio 505/432); type: binding
Excerpt: In a preferred embodiment, the probe is a fatty acid binding protein (FABP), more preferably a recombinant rat intestinal fatty acid binding protein (rI-FABP), which has been derivatized with acrylodan. DNA and protein sequences for Fatty Acid Binding Proteins (FABPs) are shown in the sequence listing. […] The rat fatty acid binding protein is post-translationally modified in the rat, with the modifications including the removal of the N-terminal methionine and the acetylation of the “new” N-terminal residue Ala. Protein sequences are numbered starting with the first residue of the mature protein. Thus, Ala is residue 1 in the corresponding protein shown as SEQ ID NO: 2. […]
Five identical 96-well plates were prepared with 0.5 μM ADIFAB and 1% dimethyl sulfoxide in 200 μL aqueous buffer (20 mM HEPES, 140 mM NaCl, 5 mM KCl, 1 mM Na2HPO4, pH 7.4) to test assay reproducibility, precision, and quality. Wells were excited at 386 nm and the emission detected at 432 and 505 nm with a fluorescence plate reader connected via fiber optic cables to a standard Spex spectrofluorometer. The emission ratio (505/432), which determines the amount of bound […], was calculated for each well. A positive control (4 μM sodium oleate (OA)) was added to each well and the ratio was measured again. […] The Z′-factor, as defined below, provides a quantitative assessment of the assay [Zhang, J., et al J. Biomol. […]

[1] = Binding affinities of ADIFAB2 compared with ADIFAB; conditions: greater than ADIFAB
Excerpt: ADIFAB2 also has an altered spectral response, making it especially useful for measurements of FFAu in blood samples (Apple et al, Clinical Proteomics, (2004) 1:41-44, U.S. patent application Ser. No. 10/670,958). The wavelengths at the maximum intensities emitted by these fluorescently-labeled I-FABP's in the absence of FFA is about 420 to 480 nm. The emission wavelengths at the maximum intensities emitted by these fluorescently-labeled I-FABP's with FFA bound are between about 495 to 580 nm. Experiments typically involve measuring the fluorescence response within both emission maxima or at wavelengths for which the effect of interfering molecules such as hemoglobin can be eliminated as described in U.S. application Ser. No. 10/670958 and PCT/US2004/030521 and the calculation of the ratio ‘R’ of the two fluorescence intensities. The baseline value for this ratio, measured in the absence of analyte, is designated R0.

[2] = Probe fluorescence intensity change with UCB:BSA; type: binding

| Molecule | ρc+ average ratio (505/432), Positive Control (+OA) (ADIFAB; 4 μM OA, 0.5 μM ADIFAB, 1% dimethyl sulfoxide, one value per plate 1-5) | ΔR (ADIFAB; 4 μM oleate, positive control) | binding affinities relative to ADIFAB [1] | ΔI/Io 1:1 UCB:BSA 440 nm ([2]; 1:1 UCB:BSA, 440 nm) | ΔI/Io 1:1 UCB:BSA 500 nm ([2]; 1:1 UCB:BSA, 500 nm) | ΔI/Io 1:2 UCB:BSA 440 nm ([2]; 1:2 UCB:BSA, 440 nm) | ΔI/Io 1:2 UCB:BSA 500 nm ([2]; 1:2 UCB:BSA, 500 nm) |
| --- | --- | --- | --- | --- | --- | --- | --- |
| CCCCCCCC/C=C\CCCCCCCC(=O)[O-].[Na+] [OA, sodium oleate] | 1.77 and 1.84 and 1.81 and 1.68 and 1.83 | 1.8 | – | – | – | – | – |
| ADIFAB2: acrylodan-derivatized rI-FABP with Ala substituted for Leu at position 72 (rI-FABP-L72A), SEQ ID NO: 4 (protein, listed as Rattus norvegicus, acrylodan label; MUTAGEN (72)...(72) rat intestinal fatty acid binding protein with alanine substitution for leucine at position 72) AFDGTWKVDRNENYEKFMEKMGINVVKRKLGAHDNLKLTITQEGNKFTVKESSNFRNIDVVFELGVDFAYSAADGTELTGTWTMEGNKLVGKFKRVDNGKELIAVREISGNELIQTYTYEGVEAKRIFKKDRGHHHHHH | – | – | about 10 fold | −0.40 | −0.34 | −0.19 | −0.16 |
